Laboratory results taken from patent publication US20100120688A1 (University of Pennsylvania, published 2010).
Bridge positions count the residues as written; N and C are the ends. Ends that are not written are not given here.

Columns and labels:
[1] = molecular target: T1, ErbB3 extracellular domain (recombinant, soluble) (UniProt P21860 20-643, limits assumed); test: SPR (Biacore 3000), control peptide injected over immobilized receptor extracellular domain
T1 construct: extracellular domain; also called ectodomain of erbB3
T1 sequence (P21860 20-643 limits assumed): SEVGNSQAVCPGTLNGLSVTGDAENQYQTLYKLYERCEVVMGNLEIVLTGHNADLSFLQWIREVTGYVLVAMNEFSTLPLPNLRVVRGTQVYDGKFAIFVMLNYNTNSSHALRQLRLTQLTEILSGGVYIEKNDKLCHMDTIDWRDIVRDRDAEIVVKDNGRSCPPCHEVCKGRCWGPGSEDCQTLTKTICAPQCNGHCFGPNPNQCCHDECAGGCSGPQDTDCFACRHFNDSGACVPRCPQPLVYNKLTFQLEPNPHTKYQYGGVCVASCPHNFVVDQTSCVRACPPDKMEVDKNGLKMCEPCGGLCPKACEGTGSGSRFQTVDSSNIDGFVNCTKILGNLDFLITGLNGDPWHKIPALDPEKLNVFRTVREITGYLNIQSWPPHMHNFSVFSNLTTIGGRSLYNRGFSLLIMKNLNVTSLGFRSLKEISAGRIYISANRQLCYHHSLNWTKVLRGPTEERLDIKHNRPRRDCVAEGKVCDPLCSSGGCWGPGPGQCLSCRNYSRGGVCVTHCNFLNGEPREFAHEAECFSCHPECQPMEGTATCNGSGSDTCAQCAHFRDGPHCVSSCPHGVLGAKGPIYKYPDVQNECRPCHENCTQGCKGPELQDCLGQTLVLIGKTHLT

[2] = molecular target: T2, ErbB2 extracellular domain (recombinant) (UniProt P04626 23-652, limits assumed); test: as above
T2 construct: extracellular domain; also called whole ectodomain of erbB2; full-size erbB2 ectodomain

[3] = molecular target: T3, ErbB1 extracellular domain (recombinant, soluble) (UniProt P00533 25-645, limits assumed); test: as above
T3 construct: extracellular domain; also called erbB1 ectodomain; EGFr

[4] = molecular target: TNF receptor (immobilized, control); test: SPR (Biacore 3000), control peptide injected over immobilized TNF receptor (control)
[5] = molecular target: T1, ErbB3 extracellular domain …; test: SPR (Biacore 3000), peptide injected over immobilized receptor extracellular domain
[6] = molecular target: T2, ErbB2 extracellular domain (recombinant); test: as above
[7] = molecular target: T3, ErbB1 extracellular domain …; test: as above
[8] = molecular target: T4, erbB2-SbdIV (recombinantly expressed subdomain IV of erbB2, GST fusion protein) (UniProt P04626 511-652); test: SPR (Biacore), peptide over immobilized erbB2-SbdIV
T4 construct: domain: subdomain IV; Expressed in E. coli BL-21 (DE3) and eluted from glutathione sepharose; no removal of GST is told; also called erbB2-Sbd W; not shown: glutathione S-transferase of the pGEX-5X-3 vector (N-terminal fusion partner)

[9] = molecular target: T2, ErbB2 extracellular domain (recombinant); test: SPR; peptide 10 µM preinjected over immobilized ErbB2, then ErbB3 (300 nM) with HRGβ1 (5 µM); competitor: erbB3-HRGβ1
[10] = molecular target: TNF receptor (immobilized, control); test: SPR (Biacore 3000), peptide injected over immobilized TNF receptor (control)
[11] = molecular target: T1, ErbB3 extracellular domain …; test: SPR; peptide 10 µM preinjected over immobilized ErbB3, then ErbB3 (300 nM) with HRGβ1 (5 µM); competitor: erbB3-HRGβ1
[12] = molecular target: T3, ErbB1 extracellular domain …; test: SPR; peptide 10 µM preinjected over immobilized ErbB1, then ErbB3 (300 nM) with HRGβ1 (5 µM); competitor: erbB3-HRGβ1
[13] = molecular target: T3, ErbB1 extracellular domain …; test: SPR (Biacore), global fit to the 1:1 Langmuir model; receptor taken as erbB1 by the KD of 0.21 µM
[14] = molecular target: T5, erbB2 receptor, native full-length, on transfected 32D cells (32D-E2/E4 and 32D-E2/E3) (UniProt P04626 23-1255, limits assumed); test: inhibition of heregulin-induced erbB2-erbB4 dimerization on 32D-E2/E4 cells, chemical cross-linking and immunoblot, dose dependence; 32D-E2/E4 cells; heregulin-induced erbB2-erbB4 heteromerization
T5 construct: whole, on cells

Kd [1]	Kd [2]	Kd [3]	Kd [4]	Kd [5]	Kd [6]	Kd [7]	Kd [8]	koff [8]	kon [8]	Percent Inhibition [9]	Kd [10]	Percent Inhibition [11]	Percent Inhibition [12]	koff [13]	kon [13]	IC50 [14]	Binder
> 1000 µM	> 1000 µM	> 1000 µM	> 1000 µM	–	–	–	–	–	–	–	–	–	–	–	–	–	FCYIGEVEDQCY (disulfide 2-11 (inferred), also called control peptide) [CD4-G (CD4 receptor-derived cyclic peptide, negative control)]
–	–	–	–	1.07 µM	0.549 µM	0.472 µM	–	–	–	58.1%	> 1000 µM	32.4%	69%	–	–	–	YCPIYKYPDVQCY (disulfide 2-12 (inferred)) [B3-S22-APQ (derived from erbB3)]
–	–	–	–	0.394 µM	0.639 µM	0.583 µM	–	–	–	54.2%	> 1000 µM	72.8%	60.3%	–	–	–	YCFIFKYADPDCY (disulfide 2-12 (inferred)) [B4-S22-AFD (derived from erbB4)]

Second part, the binder before the results:

Binder	Kd [1]	Kd [2]	Kd [3]	Kd [4]	Kd [5]	Kd [6]	Kd [7]	Kd [8]	koff [8]	kon [8]	Percent Inhibition [9]	Kd [10]	Percent Inhibition [11]	Percent Inhibition [12]	koff [13]	kon [13]	IC50 [14]
YCPIWKFPDEECY (disulfide 2-12 (inferred)) [B2-S22-APE (derived from erbB2)]	–	–	–	–	1.4 µM	1.53 µM	0.21 µM	1.89 µM	0.00307 s⁻¹	1620 M⁻¹ s⁻¹	51.1%	> 1000 µM	42.7%	80.3%	0.000685 s⁻¹	3240 M⁻¹ s⁻¹	–
YCFPDEEGACY (disulfide 2-10 (inferred)) [B2-S22-AFA (derived from erbB2)]	–	–	–	–	0.429 µM	0.302 µM	0.407 µM	–	–	–	82.5%	> 1000 µM	61.7%	78.4%	–	–	0.8 µM
YCLVWKYADAGCY (disulfide 2-12 (inferred)) [B1-S22-ALG (derived from erbB1)]	–	–	–	–	0.288 µM	0.371 µM	0.449 µM	–	–	–	71.4%	> 1000 µM	75.1%	65.2%	–	–	–
